Test results published in the supplement of paper PMC10567573.
± gives the standard deviation.

Assay: protein stability index of a GFP-peptide fusion (GPS, HEK-293T) (PSI 1-6); higher = more stable
Conditions: c terminus: a fixed tail appended
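Also: 24-mer peptide tiles fused after GFP, lentivirally expressed, FACS-sorted into six equal bins by GFP/DsRed ratio, decoded by Illumina sequencing, PSI is the read-weighted mean bin number.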

PQVPQPPSPAAVPRPPSNPPARGT [TRAF3IP2]
protein stability index (treatment: DMSO): 5.2 ± 0.12
protein stability index (treatment: MLN4924 1 uM, 8 h): 5.17 ± 0.2

IERMKQIYQQLSRYRGLGLLASVP [CRY1]
protein stability index (treatment: DMSO): 2.3 ± 0.49
protein stability index (treatment: MLN4924 1 uM, 8 h): 2.36 ± 0.35

DRAVNDYPSLYYPEMYILKGGYKE [CDC25B]
protein stability index (treatment: DMSO): 2.67 ± 0.25
protein stability index (treatment: MLN4924 1 uM, 8 h): 2.85 ± 0.46

LGLYINFRHLYKQRRRRYGQKKKK [HACD3]
protein stability index (treatment: DMSO): 2.37 ± 0.22
protein stability index (treatment: MLN4924 1 uM, 8 h): 2.61 ± 0.34

KDGVTMAPAFRLSLKAKVSDNMSH [FSD1]
protein stability index (treatment: DMSO): 3.56 ± 0.35
protein stability index (treatment: MLN4924 1 uM, 8 h): 3.75 ± 0.26

LVVMAPSPSESSETVLALVNCISP [DENND6A]
protein stability index (treatment: DMSO): 2.4 ± 0.32
protein stability index (treatment: MLN4924 1 uM, 8 h): 2.15 ± 0.19

VRLQERTSGGLLSEAPNEKLFFVD [NOP53]
protein stability index (treatment: DMSO): 3.5 ± 0.32
protein stability index (treatment: MLN4924 1 uM, 8 h): 3.34 ± 0.33

GIAIVSVLVILISIVIFCLETLPE [KCNA3]
protein stability index (treatment: DMSO): 2.21 ± 0.26
protein stability index (treatment: MLN4924 1 uM, 8 h): 2.36 ± 0.46

SRVLLSAIEGIPGSDYVNANYIDG [PTPRD]
protein stability index (treatment: DMSO): 3.28 ± 0.26
protein stability index (treatment: MLN4924 1 uM, 8 h): 3.73 ± 0.24

WYRPMYKAFRSDSSFNFFVFFFIF [SCAMP3]
protein stability index (treatment: DMSO): 2.94 ± 0.34
protein stability index (treatment: MLN4924 1 uM, 8 h): 2.86 ± 0.54

IGPIHLNEIQCTGNEKSIIDCKFN [LOXL2]
protein stability index (treatment: DMSO): 3.63 ± 0.15
protein stability index (treatment: MLN4924 1 uM, 8 h): 3.67 ± 0.23

DCLQGIRKGLQHGFFDFETFDVDE [CDC14A]
protein stability index (treatment: DMSO): 3.33 ± 0.3
protein stability index (treatment: MLN4924 1 uM, 8 h): 3.62 ± 0.61

TAENERLQKKVEQLSRELSTLRNL [CEBPB]
protein stability index (treatment: DMSO): 3.69 ± 0.2
protein stability index (treatment: MLN4924 1 uM, 8 h): 3.95 ± 0.2

MPPGLHHQRKYTQSFCGENIMMPM [ZNF207]
protein stability index (treatment: DMSO): 2.29 ± 0.6
protein stability index (treatment: MLN4924 1 uM, 8 h): 2.27 ± 0.34

ICDPGLTSFEPEALGNLVEGMDFH [CAMK2B]
protein stability index (treatment: DMSO): 3.92 ± 0.23
protein stability index (treatment: MLN4924 1 uM, 8 h): 4.07 ± 0.13

NITVVKGIRLSENVIDRMKESSPS [CHCHD3]
protein stability index (treatment: DMSO): 3.66 ± 0.29
protein stability index (treatment: MLN4924 1 uM, 8 h): 3.51 ± 0.28

AATPRTNSVISVCSSSNLAGNDDS [DLC1]
protein stability index (treatment: DMSO): 5.08 ± 0.3
protein stability index (treatment: MLN4924 1 uM, 8 h): 5.17 ± 0.083

FYSQEWYARQHCPLKNPTFLDYVR [SOAT1]
protein stability index (treatment: DMSO): 2.4 ± 0.47
protein stability index (treatment: MLN4924 1 uM, 8 h): 2.13 ± 0.25

TCIDMDWKVLTWLRYTLWIPLYPL [HACD3]
protein stability index (treatment: DMSO): 3.08 ± 0.28
protein stability index (treatment: MLN4924 1 uM, 8 h): 3.29 ± 0.5

DRKLHSRPRKLYKHSSTSSRIAKG [BTBD10]
protein stability index (treatment: DMSO): 3.81 ± 0.15
protein stability index (treatment: MLN4924 1 uM, 8 h): 3.79 ± 0.25

TRKREDAEHNLVLFRKDVDDATLS [PRPH]
protein stability index (treatment: DMSO): 4.77 ± 0.18
protein stability index (treatment: MLN4924 1 uM, 8 h): 4.73 ± 0.097

AEEYRLKEHYLTFEKSRYETYIHL [PSD2]
protein stability index (treatment: DMSO): 1.93 ± 0.2
protein stability index (treatment: MLN4924 1 uM, 8 h): 2.01 ± 0.46

KQIIRKHAQTFVALCATDVKFISN [CCND1]
protein stability index (treatment: DMSO): 2.26 ± 0.1
protein stability index (treatment: MLN4924 1 uM, 8 h): 2.39 ± 0.055

ASTSTPSSTLVRPIRSRRALPPLR [FAM189A2]
protein stability index (treatment: DMSO): 4.16 ± 0.17
protein stability index (treatment: MLN4924 1 uM, 8 h): 4.21 ± 0.21

LRKAVLKNLYKLASQCCGVHVISL [PTGFR]
protein stability index (treatment: DMSO): 2.79 ± 0.5
protein stability index (treatment: MLN4924 1 uM, 8 h): 2.73 ± 0.99

GSIMTVWLSTAPTEPLTHWYQVRC [CARM1]
protein stability index (treatment: DMSO): 2.74 ± 0.99
protein stability index (treatment: MLN4924 1 uM, 8 h): 2.84 ± 0.23

YQLCHALRFLHENQLTHTDLKPEN [CLK3]
protein stability index (treatment: DMSO): 4.62 ± 0.23
protein stability index (treatment: MLN4924 1 uM, 8 h): 4.76 ± 0.37

SPFAQELLDDGQQASPYHPGSCGA [ELF3]
protein stability index (treatment: DMSO): 4.83 ± 0.31
protein stability index (treatment: MLN4924 1 uM, 8 h): 5.04 ± 0.16

PGSLLCTVAASDPDTGDNARLTYS [PCDHGC5]
protein stability index (treatment: DMSO): 4.12 ± 0.29
protein stability index (treatment: MLN4924 1 uM, 8 h): 4 ± 0.14

RFNQAILVSRHDPASRRRVVEEVR [LPCAT4]
protein stability index (treatment: DMSO): 3.62 ± 0.25
protein stability index (treatment: MLN4924 1 uM, 8 h): 3.59 ± 0.29

IENNKYGWFWVCPGGGDICMYRHA [ZC3H15]
protein stability index (treatment: DMSO): 2.52 ± 0.32
protein stability index (treatment: MLN4924 1 uM, 8 h): 2.15 ± 0.53

RSERKKWIHCFEGVTAIIFCVALS [GNAI1]
protein stability index (treatment: DMSO): 3.21 ± 0.4
protein stability index (treatment: MLN4924 1 uM, 8 h): 2.89 ± 0.8

LTNNVDLDNTKKKMEIYQKENKDV [MNAT1]
protein stability index (treatment: DMSO): 5.34 ± 0.3
protein stability index (treatment: MLN4924 1 uM, 8 h): 5.31 ± 0.19

AFHPLFSLTSGACRLDYRRPENRS [TCF25]
protein stability index (treatment: DMSO): 2.29 ± 0.41
protein stability index (treatment: MLN4924 1 uM, 8 h): 2.24 ± 0.24

DELIPEYLNFIRGVVDSEDLPLNI [HSP90AB1]
protein stability index (treatment: DMSO): 3.22 ± 0.38
protein stability index (treatment: MLN4924 1 uM, 8 h): 3.3 ± 0.47

AQPQGAPCCSSSPEEPLNGESYES [FEM1A]
protein stability index (treatment: DMSO): 5.41 ± 0.19
protein stability index (treatment: MLN4924 1 uM, 8 h): 5.53 ± 0.2
